Assay results taken from paper PMC9620470 (Cell chemical biology, 2022).

Biological target: EPHA4-Flag protein purified from transfected 293FT cells (human, UniProt P54764 20-986)
Assay: pull-down

Chain of EPHA4-Flag protein purified from transfected 293FT cells (P54764 20-986): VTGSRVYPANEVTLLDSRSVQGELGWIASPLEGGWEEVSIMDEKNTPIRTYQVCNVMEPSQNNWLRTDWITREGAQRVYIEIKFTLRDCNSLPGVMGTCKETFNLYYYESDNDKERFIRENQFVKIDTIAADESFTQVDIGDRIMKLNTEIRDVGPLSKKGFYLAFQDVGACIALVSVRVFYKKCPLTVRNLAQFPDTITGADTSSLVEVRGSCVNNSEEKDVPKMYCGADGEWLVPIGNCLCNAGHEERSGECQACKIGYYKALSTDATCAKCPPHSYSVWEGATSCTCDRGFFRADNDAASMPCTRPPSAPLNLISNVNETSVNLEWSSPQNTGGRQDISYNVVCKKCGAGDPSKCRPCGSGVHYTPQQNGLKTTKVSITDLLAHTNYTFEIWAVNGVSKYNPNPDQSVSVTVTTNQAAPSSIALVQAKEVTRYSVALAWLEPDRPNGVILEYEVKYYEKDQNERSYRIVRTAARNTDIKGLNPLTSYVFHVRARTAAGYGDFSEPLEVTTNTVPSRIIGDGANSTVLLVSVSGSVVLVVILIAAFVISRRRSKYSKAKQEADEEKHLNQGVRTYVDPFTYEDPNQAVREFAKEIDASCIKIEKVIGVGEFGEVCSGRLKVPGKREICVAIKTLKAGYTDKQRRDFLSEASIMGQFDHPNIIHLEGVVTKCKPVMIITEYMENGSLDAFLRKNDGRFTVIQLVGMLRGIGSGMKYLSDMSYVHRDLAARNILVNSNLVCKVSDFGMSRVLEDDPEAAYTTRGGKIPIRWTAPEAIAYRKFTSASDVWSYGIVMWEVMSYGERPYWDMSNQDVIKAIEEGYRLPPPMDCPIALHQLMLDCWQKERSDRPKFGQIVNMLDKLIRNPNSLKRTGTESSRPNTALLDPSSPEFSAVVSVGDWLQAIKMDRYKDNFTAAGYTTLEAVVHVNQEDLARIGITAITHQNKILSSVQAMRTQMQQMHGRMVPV

B1: GST-GMPR, bacterially purified (enzyme, human)
chain: MPRIDADLKLDFKDVLLRPKRSSLKSRAEVDLERTFTFRNSKQTYSGIPIIVANMDTVGTFEMAAVMSQHSMFTAIHKHYSLDDWKLFATNHPECLQNVAVSSGSGQNDLEKMTSILEAVPQVKFICLDVANGYSEHFVEFVKLVRAKFPEHTIMAGNVVTGEMVEELILSGADIIKVGVGPGSVCTTRTKTGVGYPQLSAVIECADSAHGLKGHIISDGGCTCPGDVAKAFGAGADFVMLGGMFSGHTECAGEVFERNGRKLKLFYGMSSDTAMNKHAGGVAEYRASEGKTVEVPYKGDVENTILDILGGLRSTCTYVGAAKLKELSRRATFIRVTQQHNTVFS
B1: binds.

B2: GST-GMPR^Y267F, bacterially purified (enzyme, human)
chain: MPRIDADLKLDFKDVLLRPKRSSLKSRAEVDLERTFTFRNSKQTYSGIPIIVANMDTVGTFEMAAVMSQHSMFTAIHKHYSLDDWKLFATNHPECLQNVAVSSGSGQNDLEKMTSILEAVPQVKFICLDVANGYSEHFVEFVKLVRAKFPEHTIMAGNVVTGEMVEELILSGADIIKVGVGPGSVCTTRTKTGVGYPQLSAVIECADSAHGLKGHIISDGGCTCPGDVAKAFGAGADFVMLGGMFSGHTECAGEVFERNGRKLKLFFGMSSDTAMNKHAGGVAEYRASEGKTVEVPYKGDVENTILDILGGLRSTCTYVGAAKLKELSRRATFIRVTQQHNTVFS
B2: binds.
